One block for each binder: values may come before it.
Assays:
[1] = target: T1, native human type-1 parathyroid hormone receptor (hPTHR1) (Homo sapiens, UniProt Q03431); assay: flow cytometry on cells; biotin-labeled Nbs or conjugates (500 nM in Fig. 4A, or varying concentrations) incubated 30 min on ice in PBS with 2% BSA with HEK293 cells stably expressing the receptor; detection with streptavidin-APC; conditions: one partner purified
T1 construct: type-1 parathyroid hormone receptor, human, unmodified receptor on the cell surface; also called WT PTHR1; WT-PTHR1; source: HEK293 (GS22) cells, stably expressing, on cells
T1 sequence (Q03431 27-593): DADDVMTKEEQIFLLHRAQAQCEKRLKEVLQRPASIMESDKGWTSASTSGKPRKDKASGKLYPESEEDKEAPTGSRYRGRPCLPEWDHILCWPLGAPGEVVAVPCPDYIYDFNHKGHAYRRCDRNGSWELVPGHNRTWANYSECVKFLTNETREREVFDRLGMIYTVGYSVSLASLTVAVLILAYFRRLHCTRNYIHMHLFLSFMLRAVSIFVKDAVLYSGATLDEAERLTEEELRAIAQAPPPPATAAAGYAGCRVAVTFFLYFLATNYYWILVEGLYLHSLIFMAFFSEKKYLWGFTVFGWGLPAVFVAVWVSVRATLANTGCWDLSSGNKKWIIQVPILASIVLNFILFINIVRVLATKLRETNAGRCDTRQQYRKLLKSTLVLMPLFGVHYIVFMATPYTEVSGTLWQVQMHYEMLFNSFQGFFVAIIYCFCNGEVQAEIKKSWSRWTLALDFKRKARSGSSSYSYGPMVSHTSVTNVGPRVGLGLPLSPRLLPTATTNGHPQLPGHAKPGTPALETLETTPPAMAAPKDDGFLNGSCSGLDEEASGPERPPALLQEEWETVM

[2] = target: T2, glucagon-like peptide-1 receptor (GLP1R) (UniProt P43220 24-463); assay: SPR; GLP1R-ECD; replicate 1
T2 chain: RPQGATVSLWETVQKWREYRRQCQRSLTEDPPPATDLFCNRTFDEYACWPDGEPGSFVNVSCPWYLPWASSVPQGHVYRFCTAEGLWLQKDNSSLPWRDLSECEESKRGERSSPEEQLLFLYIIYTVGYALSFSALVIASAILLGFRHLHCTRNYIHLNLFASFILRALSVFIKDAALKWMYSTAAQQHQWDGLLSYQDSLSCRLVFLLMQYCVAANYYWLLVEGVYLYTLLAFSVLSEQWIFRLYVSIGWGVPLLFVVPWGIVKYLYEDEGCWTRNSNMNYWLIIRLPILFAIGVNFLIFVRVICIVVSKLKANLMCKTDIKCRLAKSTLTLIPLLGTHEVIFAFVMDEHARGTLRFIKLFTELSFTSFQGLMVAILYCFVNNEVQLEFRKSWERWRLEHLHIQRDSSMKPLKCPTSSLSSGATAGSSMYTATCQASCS

[3] = target: T2, glucagon-like peptide-1 receptor (GLP1R); assay: SPR; GLP1R-ECD; replicate 2
[4] = target: T2, glucagon-like peptide-1 receptor (GLP1R); assay: SPR; GLP1R-ECD; replicate 2
[5] = target: T2, glucagon-like peptide-1 receptor (GLP1R); assay: SPR; GLP1R-ECD; replicate 1
[6] = target: T3, PTHR1 extracellular domain (ECD); assay: SPR; replicate 2; biotinylated Nb immobilized
T3 chain: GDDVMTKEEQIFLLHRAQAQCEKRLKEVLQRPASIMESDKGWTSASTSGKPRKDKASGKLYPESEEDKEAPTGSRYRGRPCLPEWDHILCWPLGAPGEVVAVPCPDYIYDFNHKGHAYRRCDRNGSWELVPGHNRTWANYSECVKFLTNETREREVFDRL

[7] = target: T4, PTHR1 extracellular domain (ECD) (Homo sapiens); assay: SPR; Nb_(PTHR1) and PTHR1 ECD; details in Supplementary Methods; conditions: both partners purified
T4 construct: extracellular domain of the type-1 parathyroid hormone receptor; also called PTHR1 ECD; PTHR1 (ECD)
T4 chain: T3 chain

[8] = target: T3, PTHR1 extracellular domain (ECD); assay: SPR; mean of two experiments; biotinylated Nb immobilized
[9] = target: T3, PTHR1 extracellular domain (ECD); assay: SPR; replicate 1; biotinylated Nb immobilized
[10] = target: T3, PTHR1 extracellular domain (ECD); assay: SPR; replicate 1; biotinylated Nb immobilized
[11] = target: T3, PTHR1 extracellular domain (ECD); assay: SPR; replicate 2; biotinylated Nb immobilized
[12] = target: T5, nanoluciferase-PTHR1 fusion (nLuc-PTHR1) (Homo sapiens, UniProt Q03431); assay: FRET or BRET; competition on cells expressing nLuc-PTHR1: Nb_(PTHR1)-TMR (1 uM) followed by unlabeled ligand (2 uM), or varying unlabeled ligand added together with Nb_(PTHR1)-TMR (300 nM); conditions: one partner purified
T5 construct: type-1 parathyroid hormone receptor with nanoluciferase fused to the receptor N-terminus; source: cell line stably expressing the construct, on cells; not shown: nanoluciferase, N-terminal, kept
T5 sequence (Q03431 27-593): as the sequence (Q03431 27-593) above

binding result [1]: binds
B1: Nb_(PTHR1-X2) labeled with biotin (VHH)
VHH: EVQLVESGGGLVQAGGSLRLSCAASGLTFSNYAMGWFRQAPGKEREWVASINWSGGSTYYEDSVEGRFTISRDNAKNTVNLQMNSLKPEDTAVYYCAAKRGHYSREYDYWGQGTQVTVSS
notes: as the chain of m8; His6 is lost in the sortase reaction; also called Nb_(PTHR-X2); source: E. coli BL21(DE3), purified (Ni-NTA, SEC), labeled by sortagging; not shown: His6, C-terminal, cleaved

Kd [2]: 24 nM | koff [3]: 0.0013 s⁻¹ | Kd [4]: 32 nM | koff [5]: 0.0041 s⁻¹
B2: Nb_(GLP1R) (VHH)
VHH: EVQLVESGGGLVQAGGSLRLSCAASGNTYSYKVMGWFRQAPGKEREFVGIIIRNGDTTYYADSVKGRFTISADNAKNTVYLQMNSLKPEDTAVYYCAASPKYMTAYERSYDWGQGTQVTVSS

Kd [6]: 0.9 nM | Kd [7]: ~1 nM | Kd [8]: 0.7 nM | koff [9]: 0.0065 s⁻¹ | Kd [10]: 0.5 nM | koff [11]: 0.0015 s⁻¹
B3: Nb_(PTHR1), unlabeled (VHH)
VHH: EVQLVESGGGLVQAGGSLRLSCAASGNIFANNIMGWYRQPPGKEREFVAHVSHDGDSMYAVSVKGRFAISRKDATNLYLQMNSLKPEDTAIYFCRLLNIPTQGRMEGFWGQGTQVTVSS
notes: Expressed from pET26b in frame with pelB and His6; the Nbs for sortagging bear LPETGG followed by His6 at the C-terminus; also called VHH_(PTHR); source: E. coli BL21(DE3), purified (Ni-NTA, SEC)

binding result [1]: binds
B4: Nb_(PTHR1) labeled with biotin (VHH)
VHH: B3 VHH
notes: as the chain of m5; His6 is lost in the sortase reaction (unreacted protein is captured on nickel NTA beads); also called biotin-labeled Nb_(PTHR1); source: E. coli BL21(DE3), purified (Ni-NTA, SEC), labeled by sortagging; not shown: His6, C-terminal, cleaved

binding result [12]: binds
B5: Nb_(PTHR1)-TMR (tetramethylrhodamine-labeled Nb_(PTHR1)) (VHH)
VHH: B3 VHH
notes: as the chain of m5; His6 is lost in the sortase reaction; also called TMR-Nb_(PTHR1); source: E. coli BL21(DE3), purified (Ni-NTA, SEC), labeled by sortagging; not shown: His6, C-terminal, cleaved

— PMC11144202, “Highly biased agonism for GPCR ligands via nanobody tethering” (Nature Communications, 2024)
